T1: 6xHis-rMERTK(571–999), full-length human MERTK cytoplasmic domain (human, UniProt Q12866 571-999, autophosphorylated on tyrosine (incubated with ATP/MgCl2); sites Y749, Y753, Y754 were mapped on rMERTK571–864, not on this construct)
T1 construct: Expressed from the pET28a-LIC vector; also called MERTK intracellular domain; source: E. coli BL21 DE3 Gold, purified (Ni2+-NTA, Sephacryl S-200 HR), autophosphorylated with 10 mM ATP, 10 mM MgCl2
T1 sequence (looked up): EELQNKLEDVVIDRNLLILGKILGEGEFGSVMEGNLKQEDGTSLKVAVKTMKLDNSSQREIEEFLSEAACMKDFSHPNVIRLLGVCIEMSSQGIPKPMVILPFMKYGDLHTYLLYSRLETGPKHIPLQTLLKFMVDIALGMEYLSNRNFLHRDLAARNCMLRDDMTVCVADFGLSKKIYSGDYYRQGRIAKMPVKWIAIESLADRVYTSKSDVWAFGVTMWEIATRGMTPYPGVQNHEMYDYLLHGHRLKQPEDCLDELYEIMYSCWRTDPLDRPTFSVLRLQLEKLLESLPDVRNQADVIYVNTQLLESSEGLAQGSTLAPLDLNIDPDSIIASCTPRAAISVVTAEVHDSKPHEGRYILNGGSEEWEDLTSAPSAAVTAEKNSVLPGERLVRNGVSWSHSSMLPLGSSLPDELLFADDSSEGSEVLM

B1: VAV3 GST-SH2 domain fusion protein (domain or fragment, human, UniProt Q9UKW4 672-766, looked up)
chain: WYAGAMERLQAETELINRVNSTYLVRHRTKESGEYAISIKYNNEAKHIKILTRDGFFHIAENRKFKSLMELVEYYKHHSLKEGFRTLDTTLQFPY
notes: pGEX2T construct from a library of SH2 domains; also called rSH2-domain fusion protein corresponding to VAV3; source: E. coli BL21 DE3 Gold, purified (glutathione-agarose, Sephacryl S-200 HR)
B2: HCK GST-SH2 domain fusion protein (domain or fragment, human, UniProt P08631 144-241, looked up)
chain: WFFKGISRKDAERQLLAPGNMLGSFMIRDSETTKGSYSLSVRDYDPRQGDTVKHYKIRTLDNGGFYISPRSTFSTLQELVDHYKKGNDGLCQKLSVPC
notes: pGEX2T construct from a library of SH2 domains; also called rSH2-domain fusion protein corresponding to HCK; source: E. coli BL21 DE3 Gold, purified (glutathione-agarose, Sephacryl S-200 HR)
B3: VAV1 GST-SH2 domain fusion protein (domain or fragment, human, UniProt P15498 671-765, looked up)
chain: WYAGPMERAGAESILANRSDGTFLVRQRVKDAAEFAISIKYNVEVKHIKIMTAEGLYRITEKKAFRGLTELVEFYQQNSLKDCFKSLDTTLQFPF
notes: pGEX2T construct from a library of SH2 domains; also called rSH2-domain fusion protein corresponding to VAV1; source: E. coli BL21 DE3 Gold, purified (glutathione-agarose, Sephacryl S-200 HR)

The test concerns the target T1, 6xHis-rMERTK(571–999), full-length …. Briefly: pull-down; Ni2+-NTA pull down: GST-rSH2-domain protein (10 µg) incubated with autophosphorylated 6xHis-rMERTK571–999 (10 µg) in 50 mM NaH2PO4, 300 mM NaCl, 10 mM imidazole, 0.1 µM PMSF, 1 h at 4°C, then Ni2+-NTA resin 0.5 h; washes with 50 mM imidazole, elution with 500 mM imidazole; Coomassie-stained SDS gels; negative control omits rMERTK. Conditions: both partners purified.
Take B1: the binding result is on record as “binds”.
As for B2, the binding result is “binds”.
With B3 the entry was “binds”.

The values are drawn from publication PMC3563642, “MERTK Interactions with SH2-Domain Proteins in the Retinal Pigment Epithelium” (PLoS ONE, 2013).
